This note sets out measurements from the nanobody polyreactivity screen of Harvey et al. (2022).

The nature of the data set: yeast display, Sf9 membrane polyspecificity reagent, FACS + sequencing; frameworks hold sequencing errors. The method in brief:
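After 36–48 hours of galactose induction, yeast (Saccharomyces cerevisiae BJ5465) displaying a synthetic nanobody library were stained at 4 °C for 1 hour with 10% biotinylated, detergent-solubilized Sf9 membrane reagent. Streptavidin microbeads enriched the stained cells before FACS sorting into low and high (top ~1%) gates on anti-HA and streptavidin fluorescence. Each clone's polyreactivity label reflects its gate of origin.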
For “QVQLVESGGGLVQAGGSLRLSCAASGRTFSYNAMGWYRQAPGKERELVAAISYDGGRTYYADSVKGRFTISRDNAKNTVYLQMNSLKPEDTAVYYCAAYPYRGPHPWTIGDYWGQGTQVTVSS”, the “polyreactivity (PSR sort gate)” value is “low polyreactivity”.

Regarding “QVQLVESGGGLVQAGGSLRLSCAASGRTFSYYAMGWYRQAPAKERELVAAIRSTGSTNYADSVKGRFTISRDNAKNTVYLQMNSLKPEDTAVYYCAARKYYQRGYDYWGQGTQVTVSS”, the “polyreactivity (PSR sort gate)” value is reported as “high polyreactivity”.

Turning to “QVQLVESGGGLVQAGGSLRLSCAASGRTFSYYAMGWYRQAPGKEREFVAAISSTGTSTYYADSVKGRFTISRDNAKNTFSLQMNRLKPEDTAVYYCNARVATYRLHSKFYYWGQGTQVTVSS”, the “polyreactivity (PSR sort gate)” value is listed as “high polyreactivity”.

For “QVQLVESGGGLVQAGGSLRLSCAASGRTFSYYAMGWYRQAPGKERELVAAISRSGVTTHYADSVKGRFTISRDNAKNTVYLQMNSLKTEDTAVYYCNKVYYYVGTLDYWGQGTQVTVSS”, the “polyreactivity (PSR sort gate)” value was “high polyreactivity”.

With “QVQLVESGGGLVQAGGSLRLSCAASGRTFSYYAMGWYRQAPGKERELVAAISSGGSTNYADSVKGRFTISRDNAKNTVYLQMNSLKPEDTAVYYCATSSICGSGRVRWVTYYYWGQGTQVTVSS”, the “polyreactivity (PSR sort gate)” value is given as “low polyreactivity”.

For “QVQLVESGGGLVQAGGSLRLSCAASGRTFSYYAMGWYRQAPGKERELVAAITSGGGRTYYADSVKGRFTISRDNAKNTVYLQMNSLKPEDTAVYYCNKAYVSRYDYWGQGTQVTVSS”, the “polyreactivity (PSR sort gate)” value was “high polyreactivity”.

On to “QVQLVESGGGLVQAGGSLRLSCAASGRTFSYYAMGWYRQAPGKERELVAAITSSGGRTTYADSVKGRFTISRDNAKNTVYLQMNSLKPEDTAVYYCAARHTYQGPGTYPMYYWGQGTQVTVSS”, for which the “polyreactivity (PSR sort gate)” value is “high polyreactivity”.

Turning to “QVQLVESGGGLVQAGGSLRLSCAASGRTFSYYAMGWYRQAPGKERELVASINWSGGSTYYADSVKGRFTISRDNAKNTVYLQMNSLKPEDTAVYYCAADSWPFGYYYWGQGTQVTVSS”, the “polyreactivity (PSR sort gate)” value is on record as “high polyreactivity”.

With “QVQLVESGGGLVQAGGSLRLSCAASGRTFSYYSMGWYRQAPGKERELVAAITSGGGRTYYADSVKGRFTISRDNAKNTVYLQMNRLKPEDTAVYYCNALYTLYNGYDYWGQGTQVTVSS”, the “polyreactivity (PSR sort gate)” value is on record as “high polyreactivity”.

On to “QVQLVESGGGLVQAGGSLRLSCAASGRTFSYYTMGWYRQAPGKERELVAAITSSGGSTYYADSVKGRFTISRDNAKNTVYLQMNSLKPEDTAVYYCAVLNYWAMDYWGQGTQVTVSS”, for which the “polyreactivity (PSR sort gate)” value is reported as “high polyreactivity”.

As for “QVQLVESGGGLVQAGGSLRLSCAASGRTFTAYTMGWYRQAPGKERELVASISSGVTYADSVKGRFTISRDNAKNTVYVQMNSLKPEDTAVYYCAARLWYVQGYVPYVHHRFDYWGQGTQVTVSS”, the “polyreactivity (PSR sort gate)” value is recorded as “low polyreactivity”.

As to “QVQLVESGGGLVQAGGSLRLSCAASGRTFTAYTMGWYRQAPGKERELVDSISSGVTYADSVKGRFTISRDNAKNTVYLQMNSLKPEDTAVYYCAARLWYVQGYVPYVHHRFDYWGQGTQVTVSS”, the “polyreactivity (PSR sort gate)” value was “low polyreactivity”.

As to “QVQLVESGGGLVQAGGSLRLSCAASGRTFTDYTMGWSRQAPGKERELVASISSGVTYADSVKGRFTISRDNAKYTVYLQMNSLKPEDTEVYYCAARLWYVQGYVPYVHHRFDYWGQGTQVTVSS”, the “polyreactivity (PSR sort gate)” value is “low polyreactivity”.

With “QVQLVESGGGLVQAGGSLRLSCAASGRTFTFNAMGWYRQAPGKERELVARIDWRGITYADSVKGRFTISRDNAKNTVYLQMNSLKPEDTAVYYCAAVWLHIRGFFFQYDYWGQGTQVTVSS”, the “polyreactivity (PSR sort gate)” value is recorded as “low polyreactivity”.

In the case of “QVQLVESGGGLVQAGGSLRLSCAASGRTFTGSVMGWYRKAPGKERELVAAISWNGGRTYYADSVKGRFTLSRDNAKNTVYLQMYSLKPEDTGVYLCGTYGYNSYDYWGHGTQVTVSS”, the “polyreactivity (PSR sort gate)” value is on record as “high polyreactivity”.

On to “QVQLVESGGGLVQAGGSLRLSCAASGRTFTGYAMGWYRQAPGKEREFVAAITQRGGSTYYADSVKGRFTISRDNEKNTVYLQMNSLKAEDTAVYYCAARRRYKMDYWGQGTQVTVSS”, for which the “polyreactivity (PSR sort gate)” value was “high polyreactivity”.

In the case of “QVQLVESGGGLVQAGGSLRLSCAASGRTFTINAMGWYRQAPGKERELVAAITSGGSTNYADSVKGRFTISRDNAKNTVYLQMNSLKPEDTAVYYCNAGYYSRRYYFSGRLDYWGQGTQVTVSS”, the “polyreactivity (PSR sort gate)” value is “low polyreactivity”.

Consider “QVQLVESGGGLVQAGGSLRLSCAASGRTFTIYAMGWYRQAPGKEREFVASITGSDGSTYYADSVKGRFTISRDNAKNTVYLQMNSLKPEDTAVYYCAAATSSAYDYWGQGTQVTVSS”, for which the “polyreactivity (PSR sort gate)” value is reported as “low polyreactivity”.

“QVQLVESGGGLVQAGGSLRLSCAASGRTFTIYAMGWYRQAPGKERELVAAISWSDGSTYYADSVKGRFTISRDNAKNTVYLQMNSLKPEDTAVYSCAREVYGDASAPDMDYWGQGTQVTVSS”: the “polyreactivity (PSR sort gate)” value was “low polyreactivity”.

With “QVQLVESGGGLVQAGGSLRLSCAASGRTFTKYAMGWDRQAPGKERELVAVISVIGGTNYADSVKWRFTISRDNAKNTVYLQMNSLKPEDTAVYYCAAVSREHDYWGQGTQVTVSS”, the “polyreactivity (PSR sort gate)” value is recorded as “high polyreactivity”.

With “QVQLVESGGGLVQAGGSLRLSCAASGRTFTLYAMGWSRPAPGKERELVAAIRWSGSSTYYADSVKGRFTISRDNSKNTVYLQMNSLKPEDTAVYYCAARAGRYDRYGYWGQGTQVTVSS”, the “polyreactivity (PSR sort gate)” value is given as “high polyreactivity”.

As for “QVQLVESGGGLVQAGGSLRLSCAASGRTFTNNAMGWYRQAPGKERELVARITKTSGSTHYADSVKGRFTNSRDNAKNTVYLQMNSMKPEDTAVYYCATRGHYHGFYYTYPRYDSWGQGTQVTVSS”, the “polyreactivity (PSR sort gate)” value is listed as “low polyreactivity”.

With “QVQLVESGGGLVQAGGSLRLSCAASGRTFTPNVMGWYRQAPGKERELVAAITQSGGRTYYADSVKGRFTISRDNAKNTVYLQMNSLKPEDTAVYYCNAERAGTYRYDYWGQGTQVTVSS”, the “polyreactivity (PSR sort gate)” value is given as “high polyreactivity”.

Take “QVQLVESGGGLVQAGGSLRLSCAASGRTFTPYAMGWYRPAPGKERELVATISSGTSTNYADSVKGRVTISRDNAKNTVYLQMNSLKPEDTAVYYCSPSRDTVGRGPIQRDYWGQGTQVTVSS”: the “polyreactivity (PSR sort gate)” value was “low polyreactivity”.

For the sequence “QVQLVESGGGLVQAGGSLRLSCAASGRTFTPYAMGWYRQAPGKERELVAAITSNSGITSYADSVKGRFTISRDNAKNTVYLQMNSLKPEDTAVYYCNADYYRYFRYYYWGQGTQVTVSS”, the “polyreactivity (PSR sort gate)” value is on record as “high polyreactivity”.

As to “QVQLVESGGGLVQAGGSLRLSCAASGRTFTPYTMGWYRQAPGKEREFVAAITVRGGSTYYADSVKGRFTISRDNAKNTVYLQMNSLKPEDTAVYYCAASYVSYRKRDDYWGQGTQVTVSS”, the “polyreactivity (PSR sort gate)” value is given as “high polyreactivity”.

As for “QVQLVESGGGLVQAGGSLRLSCAASGRTFTQYAMGWYRQAPGKDRELVAAIDYRGSRTYYADSVKGRFTLTRDKAKNTVYLQMNSLKPEDTAVYYCNTVHRFGTYDYWGEGTQVTVSS”, the “polyreactivity (PSR sort gate)” value is given as “high polyreactivity”.

As for “QVQLVESGGGLVQAGGSLRLSCAASGRTFTRNAMGWYRQAPGKERELVAAITYRAGRTYYADSVKGRFTISRDNAKNTVYLQMNSLKPEDTAVYYCNVVPGASLKEDYWGQGTQVTVSS”, the “polyreactivity (PSR sort gate)” value was “low polyreactivity”.

In the case of “QVQLVESGGGLVQAGGSLRLSCAASGRTFTRYAMGLYRPAPGKERELVAAISYIGGRTNYADSVKGRFTISRDNAKKTVYLQMHSLKPEDTAVYYCAASRPWVYYDGLVYWGQGTQVTVTS”, the “polyreactivity (PSR sort gate)” value is “high polyreactivity”.

On to “QVQLVESGGGLVQAGGSLRLSCAASGRTFTRYAMGWYRQAPGKERELVAAISGGGGSTYYADSVKGRFTISRDNAKNTVYLQMNSLKPEDTAVYYCAADVTYGTKWAYDYWGQGTQVTVSS”, for which the “polyreactivity (PSR sort gate)” value was “high polyreactivity”.

For “QVQLVESGGGLVQAGGSLRLSCAASGRTFTRYAMGWYRQAPGKERELVAAISRSGGSTHYADSVKGRFTISRDKAKNTVYLQMNSLKPEDTAVYYCNAQQGRYWSAKGYDYWGQGTQVTVSS”, the “polyreactivity (PSR sort gate)” value was “high polyreactivity”.

For the sequence “QVQLVESGGGLVQAGGSLRLSCAASGRTFTRYTKGWYRQAPRKERDLVAASTRGGSTYADSVKGRFTNSRDNAKNTVYLEMNSLKPEDTAVYYCAAYWGFFPWRAYPYDYWGQGTQVTVSS”, the “polyreactivity (PSR sort gate)” value is “high polyreactivity”.

“QVQLVESGGGLVQAGGSLRLSCAASGRTFTRYTMGWYRQAPRKERELVAAITRGGTTYYADSVKGRFTISRDNAKNTVYLQMNSLKPEDTAVYYCNKRKQQSSDGYGYWGQGTQVTVSS”: the “polyreactivity (PSR sort gate)” value is listed as “high polyreactivity”.

Consider “QVQLVESGGGLVQAGGSLRLSCAASGRTFTSNGMGWYRQAPGKERELVAAITSGTSTYYADSVKGRFTISRDNAKNTVYLQMNSLKPEDTAVYYCNKLVPRGSSYSTVIRGGGYWGQGTQVTVSS”, for which the “polyreactivity (PSR sort gate)” value was “high polyreactivity”.

“QVQLVESGGGLVQAGGSLRLSCAASGRTFTSYAMGWYRQAPGKERELVAGISSGGSTNYADSVKGRFTISRDNAKNTVYLQMNSLKPVDTAVYYCAAGFSPGTFYAPTLAFDYWGQGTQVTVSS”: the “polyreactivity (PSR sort gate)” value is “low polyreactivity”.

As to “QVQLVESGGGLVQAGGSLRLSCAASGRTFTSYAMGWYRQAPGKERELVAGISSGGSTNYADSVKGRFTISRDNEKNTVYLQMNSLKPEDTEVYYCAAGFSPGTYDAPTLAFDYWGQGTQVTVSS”, the “polyreactivity (PSR sort gate)” value was “low polyreactivity”.

Regarding “QVQLVESGGGLVQAGGSLRLSCAASGRTFTSYAMGWYRQAPGKERELVAVITRRGGSTSYADSVKGRFTISRDNAKNTVYLQMNSLKPEDTAVYYCAAKRTWPDVKYIRYGYWGQGTQVTVSS”, the “polyreactivity (PSR sort gate)” value is on record as “high polyreactivity”.

Turning to “QVQLVESGGGLVQAGGSLRLSCAASGRTFTSYPMGWYRQAPGKERELVAAISQGGGRTYYADSVKGRFTISRDNAKNTVYLQMNSLKPEDTAVYYCNTVSLSLRYDYWGQGTQVTVSS”, the “polyreactivity (PSR sort gate)” value was “high polyreactivity”.

On to “QVQLVESGGGLVQAGGSLRLSCAASGRTFTTNAMGSYRQAPGKERELVAAITIGDDTYYADSVKGRFTISRDNAKNTVYLQMNSLKPEDTAVYYCAADYKRVPFVTQYVSKDGYWGQGTQVTVSS”, for which the “polyreactivity (PSR sort gate)” value is given as “low polyreactivity”.

As for “QVQLVESGGGLVQAGGSLRLSCAASGRTFTTNAMGWYRQAPGKERELVAGISYSTGRTYYADSVKGRFTISRDNAKNTVYLQMNSLKPEDTAVYYCAAYTRGYRGYYYWGQGTQVTVSS”, the “polyreactivity (PSR sort gate)” value is on record as “high polyreactivity”.

“QVQLVESGGGLVQAGGSLRLSCAASGRTFTTYAMGWYRQAPGKERELVASISGSGGSTYFADSVKGRFTISRDNAKNTVYLQMNSLKPEDTAVYYCATADYYHGGYYYPYDDYWGQGTQVTVSS”: the “polyreactivity (PSR sort gate)” value was “low polyreactivity”.
